Data reported in IntAct's records for PubMed 22483112.

Target: myh9_human MYH9 (UniProt P35579)
Sequence (P35579 whole entry): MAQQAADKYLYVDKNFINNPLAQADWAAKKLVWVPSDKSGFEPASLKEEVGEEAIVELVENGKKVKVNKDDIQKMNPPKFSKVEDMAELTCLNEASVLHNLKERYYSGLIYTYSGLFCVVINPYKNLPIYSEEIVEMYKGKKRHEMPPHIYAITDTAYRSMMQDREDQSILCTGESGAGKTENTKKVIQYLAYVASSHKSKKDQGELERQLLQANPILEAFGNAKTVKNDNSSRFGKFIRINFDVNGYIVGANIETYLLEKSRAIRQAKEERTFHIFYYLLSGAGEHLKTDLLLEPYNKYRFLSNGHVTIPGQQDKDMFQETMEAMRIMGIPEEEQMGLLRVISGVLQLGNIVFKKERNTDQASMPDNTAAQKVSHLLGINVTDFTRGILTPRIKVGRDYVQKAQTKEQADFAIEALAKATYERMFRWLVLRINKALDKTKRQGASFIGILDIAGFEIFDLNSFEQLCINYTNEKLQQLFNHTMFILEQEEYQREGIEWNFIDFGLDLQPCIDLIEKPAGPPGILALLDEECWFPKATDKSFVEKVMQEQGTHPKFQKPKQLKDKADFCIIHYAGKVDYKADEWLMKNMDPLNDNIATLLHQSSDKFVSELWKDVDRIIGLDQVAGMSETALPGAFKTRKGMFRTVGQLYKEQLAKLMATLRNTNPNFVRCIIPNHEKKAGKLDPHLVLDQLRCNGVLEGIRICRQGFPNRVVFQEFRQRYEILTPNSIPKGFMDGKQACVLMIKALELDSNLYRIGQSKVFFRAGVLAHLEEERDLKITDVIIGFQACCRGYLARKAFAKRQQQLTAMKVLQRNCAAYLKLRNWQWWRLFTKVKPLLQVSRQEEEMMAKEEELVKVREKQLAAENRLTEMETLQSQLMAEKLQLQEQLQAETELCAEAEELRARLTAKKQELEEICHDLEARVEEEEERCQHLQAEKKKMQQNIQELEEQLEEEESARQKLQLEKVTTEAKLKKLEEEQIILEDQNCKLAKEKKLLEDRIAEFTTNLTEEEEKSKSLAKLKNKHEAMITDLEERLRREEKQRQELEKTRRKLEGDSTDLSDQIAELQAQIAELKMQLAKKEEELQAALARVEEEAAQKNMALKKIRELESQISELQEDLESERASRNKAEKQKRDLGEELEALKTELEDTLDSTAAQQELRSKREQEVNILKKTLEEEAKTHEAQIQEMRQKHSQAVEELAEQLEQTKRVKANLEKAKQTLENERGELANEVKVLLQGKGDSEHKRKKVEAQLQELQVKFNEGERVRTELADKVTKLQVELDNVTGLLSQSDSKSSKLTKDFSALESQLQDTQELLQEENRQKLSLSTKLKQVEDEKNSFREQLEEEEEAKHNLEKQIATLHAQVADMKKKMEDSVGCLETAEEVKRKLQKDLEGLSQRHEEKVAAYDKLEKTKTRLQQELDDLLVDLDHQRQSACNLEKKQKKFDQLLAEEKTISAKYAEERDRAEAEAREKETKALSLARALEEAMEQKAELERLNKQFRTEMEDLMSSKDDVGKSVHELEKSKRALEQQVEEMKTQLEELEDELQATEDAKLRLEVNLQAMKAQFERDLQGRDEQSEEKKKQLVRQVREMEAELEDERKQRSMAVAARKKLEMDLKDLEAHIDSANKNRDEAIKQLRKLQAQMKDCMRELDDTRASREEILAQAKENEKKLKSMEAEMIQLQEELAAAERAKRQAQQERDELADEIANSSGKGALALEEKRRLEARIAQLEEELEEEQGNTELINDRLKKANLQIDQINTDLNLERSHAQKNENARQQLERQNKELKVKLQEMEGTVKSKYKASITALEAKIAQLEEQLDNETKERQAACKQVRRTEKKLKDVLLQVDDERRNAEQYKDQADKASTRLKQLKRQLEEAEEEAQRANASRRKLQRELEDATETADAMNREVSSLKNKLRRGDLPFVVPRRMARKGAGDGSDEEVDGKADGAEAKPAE

Protein S100-A4 (Homo sapiens), P26447 C81D, sequence (P26447 whole entry C81D): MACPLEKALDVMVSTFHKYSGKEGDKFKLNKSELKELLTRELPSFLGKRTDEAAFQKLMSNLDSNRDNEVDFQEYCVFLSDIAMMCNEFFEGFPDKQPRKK

Protein S100-A4 (Homo sapiens), P26447 C81D
effect of a mutation on the interaction: disrupting interaction strength

Protein S100-A4 (Homo sapiens), P26447 V77D
effect of a mutation on the interaction: disrupting interaction strength
